± gives the uncertainty stated by the source.
B1: Double-stranded RNA-specific adenosine deaminase, residues 296 to 358; numbered along this chain, P55265 (parent)
chain: MAEIKEKICDYLFNVSDSSALNLAKNIGLTKARDINAVLIDMERQGDVYRQGTTPPIWHLTDK

Variants of: B1
Assay: abundance fitness (aPCA) (normalised: wild type 0, dead -1); higher = more abundant; growth selection in yeast, the domain comes from the species named
Conditions: Homo sapiens

Variant | abundance fitness
MAEIKEKICDYLFNVSDSSALNLAKNIGLTKARDINAVLIDRERQGDVYRQGTTPPIWHLTDK [M42R] | -0.629 ± 0.051
MAEIKEKICDYLFNVSDSSALNLAKNIGLTKARDINAVLIDMERQGDVYRQGTTQPIWHLTDK [P55Q] | -0.486 ± 0.086
MAEIKEKIDDYLFNVSDSSALNLAKNIGLTKARDINAVLIDMERQGDVYRQGTTPPIWHLTDK [C9D] | -0.678 ± 0.14
MAEIKEKICDYLFNVSDSSALNLAINIGLTKARDINAVLIDMERQGDVYRQGTTPPIWHLTDK [K25I] | -0.578 ± 0.11
MAEIKEKICDYLFNVSDSSALNLADNIGLTKARDINAVLIDMERQGDVYRQGTTPPIWHLTDK [K25D] | -0.141 ± 0.1
MAEIKEKICDYLFNVSDSSALNLAHNIGLTKARDINAVLIDMERQGDVYRQGTTPPIWHLTDK [K25H] | -0.083 ± 0.082
MAEIKEKICDYLFNVSDSSALNLAYNIGLTKARDINAVLIDMERQGDVYRQGTTPPIWHLTDK [K25Y] | -0.626 ± 0.12
MAEDKEKICDYLFNVSDSSALNLAKNIGLTKARDINAVLIDMERQGDVYRQGTTPPIWHLTDK [I4D] | -0.121 ± 0.058
MAEIKEKICDYLFNVSDSSALNLAKNIGLTKARDINAVLIDMERQGDVYRQGTTPPEWHLTDK [I57E] | -0.257 ± 0.075
MAEIKEKICDYLFNVSDSSALNLAKNIGLTKARDINAVLIDMERQGDVYRQGTTPPIWHLTDN [K63N] | -0.302 ± 0.14
MAEIKEKICNYLFNVSDSSALNLAKNIGLTKARDINAVLIDMERQGDVYRQGTTPPIWHLTDK [D10N] | 0.085 ± 0.077
MAEIKEKICYYLFNVSDSSALNLAKNIGLTKARDINAVLIDMERQGDVYRQGTTPPIWHLTDK [D10Y] | -0.453 ± 0.17
MAEIKNKICDYLFNVSDSSALNLAKNIGLTKARDINAVLIDMERQGDVYRQGTTPPIWHLTDK [E6N] | -0.428 ± 0.12
MAEIKFKICDYLFNVSDSSALNLAKNIGLTKARDINAVLIDMERQGDVYRQGTTPPIWHLTDK [E6F] | -0.839 ± 0.27
MAEIKEKICDYLFNVSDSSALNLAKNIGNTKARDINAVLIDMERQGDVYRQGTTPPIWHLTDK [L29N] | 0.041 ± 0.054
MAEIKEKICDYLFNVSDSSALNLAKNIGLTKARDINAVLIDMERQGDVYRQGTTPKIWHLTDK [P56K] | -0.539 ± 0.18
MAEIKEKICDYLFNVSDSSALNLAKNIGLTKARDINAVLIDMERQGDVYRQGTTPIIWHLTDK [P56I] | -0.263 ± 0.15
MAEIKEKICDYLFNVSDSSALNLAKNIGLTKARDINAVLIDMERQGDVYRQGTTPTIWHLTDK [P56T] | -0.013 ± 0.091
MAEIKEKICDYLFNVSDSSALNLAKNIGLTKARDINAVLIDMERQGDCYRQGTTPPIWHLTDK [V48C] | -0.389 ± 0.082
MAEIKEKICDYLFNVSDSSALNLAKNIGLTKARDINAVLIDMERQGDAYRQGTTPPIWHLTDK [V48A] | -0.284 ± 0.055
MAEIKEKICDYLFNVSDSSALNLAKNIGLTKARDINAVLIDMERQGDEYRQGTTPPIWHLTDK [V48E] | -0.23 ± 0.089

Variant | abundance fitness
MAEIKEKICDYLFNVSDSSALNLAKNIGLTKARDINAVLIDMERQGDIYRQGTTPPIWHLTDK [V48I] | -0.139 ± 0.065
MAEIKEKICDYLFNVSDSSALNLAKNIGLTKARDINAELIDMERQGDVYRQGTTPPIWHLTDK [V38E] | -0.13 ± 0.06
MAEIKEKICDYLFNVSDSSALNLAKNIGLTKARDINAVLIDMERQGDVYRQGTHPPIWHLTDK [T54H] | 0.045 ± 0.045
MAEIKEKICDYLFNVSDSSALNLAKNIGLTKARDINAVLIDMERQGDVYRQGTCPPIWHLTDK [T54C] | -0.148 ± 0.087
MAEIKEKICDYLFNVSDSSALGLAKNIGLTKARDINAVLIDMERQGDVYRQGTTPPIWHLTDK [N22G] | -0.314 ± 0.087
MAEIKEKICDYLFNVSDSSALTLAKNIGLTKARDINAVLIDMERQGDVYRQGTTPPIWHLTDK [N22T] | -0.141 ± 0.087
MAEIKEKICDYLFNVSDSSALNLAKNIGLTKARDINAVLGDMERQGDVYRQGTTPPIWHLTDK [I40G] | -0.265 ± 0.055
MAEIKEKICDYLFNVSDSSALNLAKLIGLTKARDINAVLIDMERQGDVYRQGTTPPIWHLTDK [N26L] | -0.429 ± 0.059
MAEIKEKICDYLFNVSDSSALNLAKNIGLTKARDINAVLIDMERQGDVYRQYTTPPIWHLTDK [G52Y] | -0.765 ± 0.14
MAEIKEKICDYLFNVSDSSALNLAKNIGLTKARDINAVLIDMERQGDVYRQGTTPPINHLTDK [W58N] | -0.296 ± 0.091
MAEIKEKICDYLFNVSDSSALNLAKNIGLTKARDINAVLIDMERQGDVYRQGTTPPIRHLTDK [W58R] | -0.242 ± 0.054
MAEIKEKICDYLFNVSDSSALNLAKNIGLTKARDINAVLIDMEAQGDVYRQGTTPPIWHLTDK [R44A] | 0.079 ± 0.05
MAEIKEKICDYYFNVSDSSALNLAKNIGLTKARDINAVLIDMERQGDVYRQGTTPPIWHLTDK [L12Y] | -0.044 ± 0.29
MAEIKEKICDYHFNVSDSSALNLAKNIGLTKARDINAVLIDMERQGDVYRQGTTPPIWHLTDK [L12H] | -0.46 ± 0.21
MAEIKEKICDYTFNVSDSSALNLAKNIGLTKARDINAVLIDMERQGDVYRQGTTPPIWHLTDK [L12T] | -0.99 ± 0.36
MAEIKEKICDYLFNVSDSSAWNLAKNIGLTKARDINAVLIDMERQGDVYRQGTTPPIWHLTDK [L21W] | -0.071 ± 0.067
MAEIKEKICDYLFNVSDSSAMNLAKNIGLTKARDINAVLIDMERQGDVYRQGTTPPIWHLTDK [L21M] | 0.029 ± 0.11
MAEIWEKICDYLFNVSDSSALNLAKNIGLTKARDINAVLIDMERQGDVYRQGTTPPIWHLTDK [K5W] | -0.465 ± 0.077
MAEIYEKICDYLFNVSDSSALNLAKNIGLTKARDINAVLIDMERQGDVYRQGTTPPIWHLTDK [K5Y] | -0.79 ± 0.11
MAEIKEKICDYLFNVSDSSALNLAKNWGLTKARDINAVLIDMERQGDVYRQGTTPPIWHLTDK [I27W] | -0.818 ± 0.13
MAEIKEKICDYLFNVSDSSALNLAKNIGLTKARDINAVLIDMERAGDVYRQGTTPPIWHLTDK [Q45A] | 0.145 ± 0.049
